From PMC9103234 come the findings set out here.

The assay concerns the target CD20 on the surface of Raji cells (human (endogenous in Raji)) (UniProt P11836).
Sequence of UniProt P11836 (P11836 whole entry): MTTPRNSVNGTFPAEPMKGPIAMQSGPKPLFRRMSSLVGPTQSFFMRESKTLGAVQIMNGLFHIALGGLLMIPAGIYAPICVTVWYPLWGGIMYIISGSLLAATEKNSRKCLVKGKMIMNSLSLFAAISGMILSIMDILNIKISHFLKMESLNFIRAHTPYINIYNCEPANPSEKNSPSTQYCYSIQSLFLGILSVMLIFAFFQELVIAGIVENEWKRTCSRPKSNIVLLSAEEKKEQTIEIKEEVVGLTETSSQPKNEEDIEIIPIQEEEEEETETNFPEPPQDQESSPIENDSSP

Turning to rituximab (antibody), the EC50 of complement-dependent cytotoxicity on Raji cells (LDH release, guinea-pig complement) came out at 0.88 nM.
